Values of other authors as cited in patent US20200179530A1, “TARGETED DELIVERY OF THERAPEUTIC AGENTS AND IMAGING REAGENTS TO PANCREATIC CANCER CELLS” (UNIVERSITY OF MIAMI, priority 2016, published 2020).

Row | Substance | half-life (tissue) | half-life in tissue
1 | native avidin: native avidin, comparator for AvidinOX half-life | about two | –
2 | AvidinOX: avidin variant containing aldehyde groups, generated by ligand-assisted sugar oxidation of avidin by sodium periodate | – | weeks
